From the nanobody polyreactivity screen of Harvey et al. (2022)

assay: yeast display, Sf9 membrane polyspecificity reagent, FACS + sequencing; frameworks hold sequencing errors
Summary of the method: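 Polyreactivity labels are assigned by the sorting gate from which each nanobody was recovered. The gates were low and high (top ~1%), set on anti-HA fluorescence for expression and streptavidin fluorescence for reagent binding. Before sorting, galactose-induced (36–48 hours) yeast display cells were stained for 1 hour at 4 °C with 10% biotinylated, detergent-solubilized Sf9 membrane reagent.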

Row | Sequence | polyreactivity (PSR sort gate)
1 | QVQLEESGGGLVQAGGSLRLSCAATGSTFYDYAMGWYRQAPGKERELVASITFTGGSTYYADSVKGRFTISRDNAKNTVYLQMISLKPEDTAVYFCAAYGWRVHDRWFFERDYWGLGTQVTVSS | high polyreactivity
2 | QVQLEESGGGLVQAGGSLRLSCAATGYTFEANAMGWYRQAPGKERELVAVITWTGGSTYYADSVKGRFTISRDNAKYTVYLQMNSLKPEDTAVYYCAADGVVPGRFFWPAHEYDFWGQGTQVTVSS | low polyreactivity
3 | QVQLEESGGGLVQAGGSLRLSCAAYGRTFPNYAMGRYRQAPGKEREMVADISSSGVSTYYADSVKGRFTISRDNAKNTVYLKMNSLKPEDTAVYYCAARSWWFQRGEYWGQGTQVTVSS | high polyreactivity
4 | QVQLEESGGGLVQAGGSLRLSCAPSGSIFFYYAMGWYRQAPGKERELVAAITFTGGSTYYADSVKGRFTISRDNANNTVYLQMNSLNPEDTAVSYCAADWYYGDEYEYWGQGTQVTVSS | high polyreactivity
5 | QVQLEESGGGLVQAGGSLRLSCDASGSTLLYYAMGWYRPAPGKERELVAAISWRGGSTYYADSVKGRFTISRDNAKNTVYLQMNSLKPEDTAVYYCAARSLRLVGPYYYWGEGTQVTVSS | high polyreactivity
6 | QVQLEESGGGLVQAGGSLRLSFAASGRTFWWYAMGWYRQAPGKERELVAAITWSGGSTYYADSVKGRFTISRDNAKNTVYLQMNSLKPEDTAVYYCAAYVHNKYDYWGQGTQVTVSS | low polyreactivity
7 | QVQLEESGGGLVQAGGSLRLSSAASGIIFGTNAMGWYRQAPGKERELVAGITSSGDSTYYADSVKGRFTISRDNPKNTVYLQMNSLKPEDTAVYYCARDIRTREFDSWGQGTQVTVSS | low polyreactivity
8 | QVQLEESGGGLVQAGGSLRLSSAASGSIFGVNPMGWYRQTPGKERELVARINWSSGRTYYADSVKGRFTISRDNAKNTVYLQMNCLKPEDTAVYYCAAAYWRPGVRFFGPYDYWGQGTQVTVSS | high polyreactivity
9 | QVQLEESGGGLVQAGGSLRLSWAASGSTFVPNAMGWYRQAPGKERELVAAISYSGGTTYYADSVKGRFTISRDNAKNTVYLQMNSLKPEDTAVYYCAARSKGAAAILDDYWGQGTQVTVSS | low polyreactivity
10 | QVQLEESGGGLVQAGGSLRLTCAASGRILGYSAMGWYRQAPGKERELVAAISSGDSTNSADSVKGRFTISRDNAKITVYLQMNSLKPEDTAVYYCAAKGCIWNPYNYWGQGTQVTVSS | low polyreactivity
11 | QVQLEESGGGLVQAGGSLRLTCAASGRTFYNNAMGWYRQAPGKERQLVATISKSGGSTNYADSVKGRFTISRDNAKNTVYLQMNSLKPEDNAVYYCAADTSGGSWGRGRWKYGYWGQGTQVTVSS | high polyreactivity
12 | QVQLEESGGGLVQAGGSLRLTCAPSGTTFSRYVMGWYRQAPGKERELVAAINRSSGSTYYADSVKGRFTISRDNAKNTVYLQMNSLKPEDTAVYYCAALYRKRGSVQYDYWGQGTQVTVSS | high polyreactivity
13 | QVQLEESGGGLVQAGGSLRVSCSASGSTYLDYHMGWYRQAPGQQRELVAAITDSGGRTYYADSVKARFTISRDNAKNTVYFQMKSLKPEDTAVYYCARDRGKITPYDYWGQGTQVTVSS | low polyreactivity
14 | QVQLEESGGGLVQAGGSLSLSCAASGRNMPYNVMAWYIQATGKEREFVAAITGSGGDTYYADSVKGRFTISRDNAKNTVYLQMNSLKPEDTAVYYCAAAPYIGCSFGQTPGSGYWGQGTQVTVSS | low polyreactivity
15 | QVQLEESGGGLVQAGGSLSLSCAASGSILIYNAMGWYRQAPGKERELVAGISRRGASTYYADSVKGRFTISRDNEKKTVYLQMNRLKPEDTAVYYCAALGKYIVAWSGDYWGQGTQVTVSS | low polyreactivity
16 | QVQLEESGGGLVQAGGSRRLSCAASGSIFIANAMGWYRQAAGKEREFVAGISASGSSTYYADSVKVRFTISRDNAKNTVYLQMNILKPEDTAVNYCAAGSYYWGQGTQVTVSS | high polyreactivity
17 | QVQLEESGGGLVQAGGTLRLSCAASGRIFSGYAMGWYRQAPGKERELGAAISSSGGSTYYADSVQGRFTISRDNAKNTVYLQMNSLKPEDTAVYYCAASRSRYSVNWYNYWGQGTQVSVSS | high polyreactivity
18 | QVQLEESGGGLVQAGRSLRFSCAASGRIFPWYTMGWYRPAPGKERELVAVISSGGRTHYADSVKGRFTISRDNAKNTVYLQMNSLKPEDTAVYYCAGESRYQRYDYWRQGTQVTVSS | high polyreactivity
19 | QVQLEESGGGLVQAGVSLRLSCAASGRIFLSNAMGWYRQAPGKEREFVAAISWRGGSTYYADSVKGRFTISRDNAKNTVYLQMNSLKPEDTAVYYCAVDVRYYYGRSYDYWGQGTQVTVSS | high polyreactivity
20 | QVQLEESGGGLVQARGSLRLSCAASGSTFNSYAMGWYRQAPGKERELVAAISSTGGNTYYADSVKGRFTISLDNAKNTVYLQMNSLKPEDTAVYYCNARRYGKVVRSSYNYWGQGTQVTVSS | high polyreactivity
21 | QVQLEESGGRLVQAGGSIRLTCAASGSIFASNTKGWYRQAPGKERELVAGITKIGSSTYYADSVKGRFTISRDNAKNTVYLQMNSLKPEDTAVYYCNAYGPNIYSSRYDYWGQCTQVTVSS | low polyreactivity

Row | Sequence | polyreactivity (PSR sort gate)
22 | QVQLEESGGRLVQAGGSLRLRCAASGLMYTRYVMGWYRQAPGKERELVAVISSGGSTYYADSVKGRFTISRDNAKNTVYLQMNSLIAEDTAVYYCAAYLRSSHVTYDYWGQGTQVTVSS | high polyreactivity
23 | QVQLEESGGRLVQAGGSLRLSCAASGSTFSNNAMGWYRQAPGKERELVAAIRTSGGRTYYADSVKGRFTISRDNAKHTVYLQMNSLKPEDTAVYYCAKRWVYRYGYEYWGQGTQVTVSS | high polyreactivity
24 | QVQLEESGLGLVQAGGSLRLSCAASGFTFYGNAMGSYRKAPGKEREFVAAISSSGASTRYADSVKGRFTISRDNAKNTVYLQMYSLKPEDTAVYYCAADAPAWILEAYGYWGQGTQVTVSS | low polyreactivity
25 | QVQLEESGRGLDQAGVSLRLSCAASVSTFAGYAMGWYRQAPVKERELVATITYSGGSTYYADSVKGRFTISRDNAKNTVYLQMNSLKPEDTAVYYCAKKASDWWGYEYWGQGTQVTVSS | low polyreactivity
26 | QVQLEESGRGLVQAGGSLRLSCAASGFTFNWYAMGWSSQATGKERELVATINSGGSTYYADSVKGRFTISRDNAKNTVYLQMNSLKPEDTAVYYCNRTHRRRYVKSAYNYWGQGTQVTVSS | low polyreactivity
27 | QVQLEESGVGLVQAGGSLRLSSAASGNIFVRYSMGWYRQARGKERELVAAISWSGGRTYYADSVKGRFTISRDKAKNSVYFQMNSLKPEDTAVYYCAAGVPKIGQAGYDYWGQGTQVTVSA | high polyreactivity
28 | QVQLEESRGGLVQAGGSLRLSCAASGLNFRSNAMGWYRQAPGKERELVAAISSSGGSTYYADSVKGRFTISRENAKNTVYLQMNSLKPEDTAVYYCAAEDPADQYDYWGQGTQVTVSS | high polyreactivity
29 | QVQLEESRGGLVQAGGSLRLSCAASGLTSRQYAMGWYSQAPGKERELVAAITLRDGSTYYADSVKGRFTISRDNAKNTDYLQMNSLKPEDTAVYYCARRYLGLYSHFDYWGQGTQVTVSS | high polyreactivity
30 | QVQLEESRGGLVQAGGSLRLSCAASGNIFGSNAMGWYRQAPGKERGLVAAISGSNGGTYYADSVKGRFTISRDYAKNTVYLQMNSLTPEDTAVYFCAAVWYLEDHHDYYYWGQGTQVTVSS | low polyreactivity
31 | QVQLEESVGGLVQAGGSLRLSCAASGRIFRGYAMGWYRQAPGKETELVATISAIGGSTYADSVKGRFTISRDNAKNTVYLQKNSLKPEDTAVYYCNVRKVYRYQFRFEYWGQGTQVTVSS | high polyreactivity
32 | QVQLEESVGGLVQAGGSLRLSCAASGSILLWNAMGSYREAPGKERELVAAISSSGTSTYYADSVKGLFTISRDNAKNTVYLQMNSEKPEDNAVYYCAADQSEFYAIYYYWGQGTQVTVSS | low polyreactivity
33 | QVQLEESVGGLVQAGGSLRLSCAASVFIFYKKNMGLYRQAPGKERELVAAITDGDHTNYADSVKGRFTISRDNAKNTVYLQMNSLKPEDTAVYYCAADYAWNYAFGYWGQGTQVTVSS | low polyreactivity
34 | QVQLEESWGCLVQAGGSLRLSCAASGYTFVNYAMGWSRQAPGKEREFVAAISRSGGSTYYADSVKGRFTISRDNAKNTDYLQMHSLKPEDTAVYYCALRGYPPYKYYYWGQGTQVTVSS | high polyreactivity
35 | QVQLEETGGGLVQAGGSLLLSCEASGLTIHPYAMGWYRHAPGKERELVAAISSRGTSTYYADSVKWRFTISRDTAKNTVYLQMNSLKPEDTAVYYCAARHGPRAEAMYYWGQGPQVTVSS | high polyreactivity
36 | QVQLEETGGGLVQAGGSLRLSCSASGRTLYYYAMGWYRQAHGKDRELVAAISKRGGSTYYADSVQGRFTISRDNAKNTVYLQINSLKPVDTAVFYCAASSGLDSWGQGTQVTVSS | high polyreactivity
37 | QVQLEETGRGLVQAGGSLRISSAASGGIFAHYVMGWYRQAPGKARELVAAISASGGSTYYADSVKGRFTISRDNAKNTVYLQMNSLKPEDTAVYYCAAYYLAWFADRYKTVGSAMDYWGQVTQVTVSS | low polyreactivity
38 | QVQLEGSGGGLVQAGGSLRLSCAASGSIFSTNAMGWYRKAPGKERELVASISSGGGSTYYADSVKGRFTISRDTAKKTVYLQMNSLKPEDTAVYYCARRIGHGSRPYWLETWRYPYEYWGQGTQVTVSS | low polyreactivity
39 | QVQLEVSGGGLDQAGGSLRLSCAASGFTFVYYVMGCYRQAPGKQWELVAAINAGGGSTYYADSVKGRFTISRDNAKNTVYLQMNSLKPEDTAVYYCNARVRVRLGRNWSSYYYWGQGTQVTVSS | high polyreactivity
40 | QVQLGESGGALVQAGGSLRLSCAASGSIYWYKDMGWYTEATGKEMELVAAINSGGDTNYADSVKGRFTISRDNAKNTVYLQMNSLKPEDTAVFYCAATLLSRFYLSNRRSAYNYWGQGTLVTVSS | high polyreactivity
41 | QVQLGESGGCLGQAGGSLRLSCAASGYTFPYNVMGWYRQAPGKERELDAAITSSGGSTYYADSVKGRFTISRDNAKNTVYLQMNRLKPEDTAVYYCNAYPSSSLFDYWGQGTQVTVSS | low polyreactivity
